According to the RNAGym collection of RNA variant scans (doi:10.7554/elife.80360):

B1: Hairpin Ribozyme (parent)
chain: GUCCUCUUUCACGUGCGCGUGAAAGAGAGAAGUGAACCAGAGAAACACACGUUGUGGUAUAUUACCUGGUA

Variants of: B1
Assay: self-cleavage, relative activity (ratio to wild type); higher = more cleavage; co-transcriptional
Work on GUCCUCUUUCACGUCCGCGUGAAAGAGAGAAGUGAACCAGAGAAACACACGUUGUGGUCUAUUACCUGGUA [G15C A59C] yielded a self-cleavage of 0.146.
GUCCUCUUUCACGUCCGCGUGAAAGAGAGAAGAGAACCAGAGAAACACACGUUGUGGUAUAUUACCUGGUA [G15C U33A] gave a self-cleavage of 0.0629.
For GUCCUCUUUCACGUCCGCGUGAAAGAGAGAAGUGAACCUGAGAAACACACGUUGUGGUAUAUUACCUGGUA [G15C A39U], the self-cleavage was 0.402.
GUCCUCUUUCACGUCCGCGUGAAAGAGAGAAGUGAACCCGAGAAACACACGUUGUGGUAUAUUACCUGGUA [G15C A39C] gave a self-cleavage of 0.463.
Work on GUCCUCUUUCACGUCCGCGUGAAAGAGAGAAGUGAACCAGAGUAACACACGUUGUGGUAUAUUACCUGGUA [G15C A43U] yielded a self-cleavage of 0.126.
With GUCCUCUUUCACGUCCGCGUGAAAGAGAGAAGUGAACCAGAGAAACACACGUUGUGGGAUAUUACCUGGUA [G15C U58G] the self-cleavage was 0.493.
For GUCCUCUUUCACGUCCGCGUGAAAGAGAGAAGUGAACCAGAGAAACACACGUUGUGGUAUAUUACCUCGUA [G15C G68C], the self-cleavage was 0.165.
In the case of GUCCUCUUUCACGUCCGCGUGUAAGAGAGAAGUGAACCAGAGAAACACACGUUGUGGUAUAUUACCUGGUA [G15C A22U], the self-cleavage is reported as 1.01.
With GUCCUCUUUCACGUACGCGUGAAAGAGAGAAGUGAACCAGAGAAACACACGUUGUGGGAUAUUACCUGGUA [G15A U58G] the self-cleavage was 0.501.
In the case of GUCCUCUUUCACGUUCGCGUGAAAGAGAGAAGUGAACCGGAGAAACACACGUUGUGGUAUAUUACCUGGUA [G15U A39G], the self-cleavage is reported as 0.245.
Variant GUCCUCUUUCACGUCCGCGUGAAAGAGAGAAGUGAACCAGAGAAACACACGUUGUGGUAUAUUCCCUGGUA [G15C A64C] has a self-cleavage of 0.162.
GUCCUCUUUCACGUCCGCGUGAAAGAGAGAAGUGAACCAGAGAAACACACGUUGUGGUAUAUUGCCUGGUA [G15C A64G] gave a self-cleavage of 0.532.
GUCCUCUUUCACGUCCGCGUGAAAGAGAGAAGUGAACCAGAGAAACACACGUAGUGGUAUAUUACCUGGUA [G15C U53A] gave a self-cleavage of 0.792.
For GUCCUCUUUCACGUCCGCGUGAAAGAGAGAAGUGAACCAGAGAAACACACGUUGUGGUAUAUUAUCUGGUA [G15C C65U], the self-cleavage was 0.352.
In the case of GUCCUCUUUCACGUCCGCGAGAAAGAGAGAAGUGAACCAGAGAAACACACGUUGUGGUAUAUUACCUGGUA [G15C U20A], the self-cleavage is reported as 0.963.
For GUCCUCUUUCACGUCCGCGUGAAAGAGAGACGUGAACCAGAGAAACACACGUUGUGGUAUAUUACCUGGUA [G15C A31C], the self-cleavage was 0.206.
Work on GUCCUCUUUCACGUCCGCGUGAAAGAGAGAAGUGAACCAGAGAAACACACUUUGUGGUAUAUUACCUGGUA [G15C G51U] yielded a self-cleavage of 0.91.
Variant GUCCUCUUUCACGUCCGUGUGAAAGAGAGAAGUGAACCAGAGAAACACACGUUGUGGUAUAUUACCUGGUA [G15C C18U] has a self-cleavage of 0.922.
For GUCCUCUUUCACGUCCGGGUGAAAGAGAGAAGUGAACCAGAGAAACACACGUUGUGGUAUAUUACCUGGUA [G15C C18G], the self-cleavage was 0.863.
With GUCCUCUUUCACGUCCGCGUGAAAGAGAGAAGUGAACCAGAGAAACACACGUUGUGGUAUAUUACGUGGUA [G15C C66G] the self-cleavage was 0.0808.
GUCCUCUUUCACGUCCGCGUGAAAGAGAUAAGUGAACCAGAGAAACACACGUUGUGGUAUAUUACCUGGUA [G15C G29U] showed a self-cleavage of 0.174.
Work on GUCCUCUUUCACGUCCGCGUGAAAGAGACAAGUGAACCAGAGAAACACACGUUGUGGUAUAUUACCUGGUA [G15C G29C] yielded a self-cleavage of 0.116.
Work on GUCCUCUUUCACGUCCGCGUGAAAGCGAGAAGUGAACCAGAGAAACACACGUUGUGGUAUAUUACCUGGUA [G15C A26C] yielded a self-cleavage of 0.834.
Work on GUCCUCUUUCACGUUCGCGUGAAGGAGAGAAGUGAACCAGAGAAACACACGUUGUGGUAUAUUACCUGGUA [G15U A24G] yielded a self-cleavage of 1.12.
GUCCUCUUUCACGUUCGCGUGAACGAGAGAAGUGAACCAGAGAAACACACGUUGUGGUAUAUUACCUGGUA [G15U A24C] gave a self-cleavage of 1.08.
Work on GUCCUCUUUCACGUUCGCGUGAAAGAGAGAAGUGAACCAGAGAAACACACGUUGUGGUAUAUUGCCUGGUA [G15U A64G] yielded a self-cleavage of 0.657.
For GUCCUCUUUCACGUUCGCGUGAAAGAGAGAAGUGAACCAGAGAAACACACGUUGUGGUAUAUUCCCUGGUA [G15U A64C], the self-cleavage was 0.16.
In the case of GUCCUCUUUCACGUCCGCGUGAAAGAGAGAAGUGAACCAGAGAAACACACGUUGUGGUAUAUAACCUGGUA [G15C U63A], the self-cleavage is reported as 0.188.
Work on GUCCUCUUUCACGUCCGCGUGAAAGAGAGAAGUGAACCAGAGAAACAAACGUUGUGGUAUAUUACCUGGUA [G15C C48A] yielded a self-cleavage of 0.121.
GUCCUCUUUCACGUCCGCGUGAAAGAGAGAAGUGAACCAGAGAAACACACGUUGUGGUAUAUUACCUGGUC [G15C A71C] gave a self-cleavage of 1.29.
Work on GUCCUCUUUCACGUUCGCGUGAAAGAGAGAAGUGAACCAGAGAAACGCACGUUGUGGUAUAUUACCUGGUA [G15U A47G] yielded a self-cleavage of 0.116.
With GUCCUCUUUCACGUUCGCGUGAAAGAGAGAAGUGAACCAGAGAAACACACGUUGUGGUAUCUUACCUGGUA [G15U A61C] the self-cleavage was 0.261.
Variant GUCCUCUUUCACGUACGCGUGAAAGAGAGAAGUGAACCAGAGAAACACACGUUGUGGUAUAUGACCUGGUA [G15A U63G] has a self-cleavage of 0.0686.
In the case of GUCCUCUUUCACGUACGCGUGAAAGAGAGAAGUGAACCAGAGAAACACACGUUGUGGUAUAUCACCUGGUA [G15A U63C], the self-cleavage is reported as 0.0715.
Variant GUCCUCUUUCACGUACGCGUGAAAGAGAGAAGUGAACCAGAGAAACACACGUUGUGGUAUAUAACCUGGUA [G15A U63A] has a self-cleavage of 0.116.
For GUCCUCUUUCACGUCCGCGUGAAAGAGAGAAGUGAACCAGAGAAACACACGUUGUGGUAAAUUACCUGGUA [G15C U60A], the self-cleavage was 0.709.
Work on GUCCUCUUUCACGUCCGCGUGAAAGAGAGAAGUGACCCAGAGAAACACACGUUGUGGUAUAUUACCUGGUA [G15C A36C] yielded a self-cleavage of 0.678.
GUCCUCUUUCACGUCCGCGUGAAAGAGAGAAGUGAGCCAGAGAAACACACGUUGUGGUAUAUUACCUGGUA [G15C A36G] showed a self-cleavage of 1.06.
